Experimental data published in paper PMC5446404 (2017).

T1: recombinant human fortilin (Strep-tag II), biotinylated (human, UniProt P13693 1-172, biotinylated (sites not given))
T1 chain: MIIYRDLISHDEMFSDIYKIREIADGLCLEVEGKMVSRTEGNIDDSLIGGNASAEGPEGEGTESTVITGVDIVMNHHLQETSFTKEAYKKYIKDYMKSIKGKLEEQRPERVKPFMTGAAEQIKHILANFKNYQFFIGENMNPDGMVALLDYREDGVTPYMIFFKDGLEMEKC


Key:
[1] = biological target: T1, recombinant human fortilin (Strep-tag …); assay: BLI
[2] = biological target: T1, recombinant human fortilin (Strep-tag …); assay: BLI; dephosphorylated IRE1α
[3] = biological target: T1, recombinant human fortilin (Strep-tag …); assay: BLI; phosphorylated IRE1α

Binder	Kd [1]	also measured
GST-IRE1α-TM (aa 401-500) (domain or fragment) EEVINLVDQTSENAPTTVSRDVEEKPAHAPARPEAPVDSMLKDMATIILSTFLLIGWVAFIITYPLSMHQQQQLQHQQFQKELEKIQLLQQQQQQLPFHP	4.19 mM	
GST-IRE1α-C (aa 468-977) (domain or fragment) MHQQQQLQHQQFQKELEKIQLLQQQQQQLPFHPPGDTAQDGELLDTSGPYSESSGTSSPSTSPRASNHSLCSGSSASKAGSSPSLEQDDGDEETSVVIVGKISFCPKDVLGHGAEGTIVYRGMFDNRDVAVKRILPECFSFADREVQLLRESDEHPNVIRYFCTEKDRQFQYIAIELCAATLQEYVEQKDFAHLGLEPITLLQQTTSGLAHLHSLNIVHRDLKPHNILISMPNAHGKIKAMISDFGLCKKLAVGRHSFSRRSGVPGTEGWIAPEMLSEDCKENPTYTVDIFSAGCVFYYVISEGSHPFGKSLQRQANILLGACSLDCLHPEKHEDVIARELIEKMIAMDPQKRPSAKHVLKHPFFWSLEKQLQFFQDVSDRIEKESLDGPIVKQLERGGRAVVKMDWRENITVPLQTDLRKFRTYKGGSVRDLLRAMRNKKHHYRELPAEVRETLGSLPDDFVCYFTSRFPHLLAHTYRAMELCSHERLFQPYYFHEPPEPQPPVTPDAL	0.00067 mM	
de-phosphorylated IRE1α-Myc-DDK (aa 1-977) (natural protein) IFGSTSTVTLPETLLFVSTLDGSLHAVSKRTGSIKWTLKEDPVLQVPTHVEEPAFLPDPNDGSLYTLGSKNNEGLTKLPFTIPELVQASPCRSSDGILYMGKKQDIWYVIDLLTGEKQQTLSSAFADSLCPSTSLLYLGRTEYTITMYDTKTRELRWNATYFDYAASLPEDDVDYKMSHFVSNGDGLVVTVDSESGDVLWIQNYASPVVAFYVWQREGLRKVMHINVAVETLRYLTFMSGEVGRITKWKYPFPKETEAKSKLTPTLYVGKYSTSLYASPSMVHEGVAVVPRGSTLPLLEGPQTDGVTIGDKGECVITPSTDVKFDPGLKSKNKLNYLRNYWLLIGHHETPLSASTKMLERFPNNLPKHRENVIPADSEKKSFEEVINLVDQTSENAPTTVSRDVEEKPAHAPARPEAPVDSMLKDMATIILSTFLLIGWVAFIITYPLSMHQQQQLQHQQFQKELEKIQLLQQQQQQLPFHPPGDTAQDGELLDTSGPYSESSGTSSPSTSPRASNHSLCSGSSASKAGSSPSLEQDDGDEETSVVIVGKISFCPKDVLGHGAEGTIVYRGMFDNRDVAVKRILPECFSFADREVQLLRESDEHPNVIRYFCTEKDRQFQYIAIELCAATLQEYVEQKDFAHLGLEPITLLQQTTSGLAHLHSLNIVHRDLKPHNILISMPNAHGKIKAMISDFGLCKKLAVGRHSFSRRSGVPGTEGWIAPEMLSEDCKENPTYTVDIFSAGCVFYYVISEGSHPFGKSLQRQANILLGACSLDCLHPEKHEDVIARELIEKMIAMDPQKRPSAKHVLKHPFFWSLEKQLQFFQDVSDRIEKESLDGPIVKQLERGGRAVVKMDWRENITVPLQTDLRKFRTYKGGSVRDLLRAMRNKKHHYRELPAEVRETLGSLPDDFVCYFTSRFPHLLAHTYRAMELCSHERLFQPYYFHEPPEPQPPVTPDAL		Kd [2]: 1050 nM
recombinant human phospho-IRE1α-Myc-DDK (aa 1-977) (natural protein, phosphorylated (sites not stated for this preparation)) IFGSTSTVTLPETLLFVSTLDGSLHAVSKRTGSIKWTLKEDPVLQVPTHVEEPAFLPDPNDGSLYTLGSKNNEGLTKLPFTIPELVQASPCRSSDGILYMGKKQDIWYVIDLLTGEKQQTLSSAFADSLCPSTSLLYLGRTEYTITMYDTKTRELRWNATYFDYAASLPEDDVDYKMSHFVSNGDGLVVTVDSESGDVLWIQNYASPVVAFYVWQREGLRKVMHINVAVETLRYLTFMSGEVGRITKWKYPFPKETEAKSKLTPTLYVGKYSTSLYASPSMVHEGVAVVPRGSTLPLLEGPQTDGVTIGDKGECVITPSTDVKFDPGLKSKNKLNYLRNYWLLIGHHETPLSASTKMLERFPNNLPKHRENVIPADSEKKSFEEVINLVDQTSENAPTTVSRDVEEKPAHAPARPEAPVDSMLKDMATIILSTFLLIGWVAFIITYPLSMHQQQQLQHQQFQKELEKIQLLQQQQQQLPFHPPGDTAQDGELLDTSGPYSESSGTSSPSTSPRASNHSLCSGSSASKAGSSPSLEQDDGDEETSVVIVGKISFCPKDVLGHGAEGTIVYRGMFDNRDVAVKRILPECFSFADREVQLLRESDEHPNVIRYFCTEKDRQFQYIAIELCAATLQEYVEQKDFAHLGLEPITLLQQTTSGLAHLHSLNIVHRDLKPHNILISMPNAHGKIKAMISDFGLCKKLAVGRHSFSRRSGVPGTEGWIAPEMLSEDCKENPTYTVDIFSAGCVFYYVISEGSHPFGKSLQRQANILLGACSLDCLHPEKHEDVIARELIEKMIAMDPQKRPSAKHVLKHPFFWSLEKQLQFFQDVSDRIEKESLDGPIVKQLERGGRAVVKMDWRENITVPLQTDLRKFRTYKGGSVRDLLRAMRNKKHHYRELPAEVRETLGSLPDDFVCYFTSRFPHLLAHTYRAMELCSHERLFQPYYFHEPPEPQPPVTPDAL		Kd [3]: 320 nM
